{"source": "patent EP2138508A1", "about": "(Helmholtz-Zentrum für Infektionsforschung GmbH, dated 2009)", "binders": {"B1": {"name": "InIB321_Crys (InIB321 G206C A227C C242A, \"crystal dimer\") (ligand)", "chain": "ETITVPTPIKQIFSDDAFAETIKDNLKKKSVTDAVTQNELNSIDQIIANNSDIKSVQGIQYLPNVTKLFLNGNKLTDIKPLANLKNLGWLFLDENKVKDLSSLKDLKKLKSLSLEHNGISDINGLVHLPQLESLYLGNNKITDITVLSRLTKLDTLSLEDNQISDIVPLACLTKLQNLYLSKNHISDLRALCGLKNLDVLELFSQEALNKPINHQSNLVVPNTVKNTDGSLVTPEIISDDGDYEKPNVKWHLPEFTNEVSFIFYQPVTIGKAKARFHGRVTQPLKE", "modifications": "two intermolecular disulfides: Cys 206 of chain A with Cys 227 of chain B and vice versa"}}, "key": {"[1]": {"target": "Met receptor on MDCK cells (UniProt Q75ZY9 25-1382)", "experiment": "cell-based or functional assay"}, "[2]": {"target": "Met receptor on MK keratinocytes (mouse, UniProt P16056 25-1379)", "experiment": "cell-based or functional assay"}}, "data": [{"binder": "B1", "values": [{"measurement": "cell scattering of MDCK cells, potency relative to HGF and InIBfl", "setting": "[1]", "result": "~2 orders of magnitude"}, {"measurement": "stimulation of DNA synthesis in MK keratinocytes, activity relative to full-length InIB", "setting": "[2]", "result": "~10", "unit": "fold"}]}]}
